These results are taken from patent publication US20250333497A1, “ACTIVATING ANTIBODIES OF RECEPTOR PROTEINS PLXDC1 AND PLXDC2” (THE REGENTS OF THE UNIVERSITY OF CALIFORNIA, priority 2022, published 2025).

In experiment [1] the target is T1, Domain A-deleted PLXDC1 (PLXDC1-dA) (Homo sapiens, UniProt Q8IUK5).
T1 construct: expressed in transfected cells
The experiment is described as follows: Domain A binding specificity: binding to Domain A-deleted PLXDC1 expressed in transfected cells. From the text:
(§1) The specific binding to Domain A of a PLXDC protein can be tested with a method described herein. In some embodiments, the method employs a PLXDC with the Domain A deleted. […] An example is Compound 369 as described above.
(§2) The Domain A-binding antibodies are 3-C11, 4-A8, 5-E2, 2-H2, 3-G6, 3-G7, 8-A7, 8-A9, 8-C9 and 8-D9.
(§3) Both full length PLXDC1 and Domain A deleted PLXDC1 (PLXDC1-dA) have an epitope tag on the N-terminus.

Experiment [2] deals with PLXDC1. Description: Promotor activity in PLXDC1-expressing cells (activation of PLXDC signaling). It is filed as cell-based. From the text:
This example tested some of the identified antibodies for their activity in activating PLXDC signaling.

Experiment [3] has as its system human lung tumor endothelial cells expressing PLXDC1. The experiment is described as follows: Ex vivo tumor angiogenesis model: killing of tumor endothelial cells. The class given is cell-based. The conditions noted are these: signal day 1 vs day 8, 500 nM printed for 3-G7. The procedure: The following protocol describes the Ex Vivo Tumor Angiogenesis Model.
1. The day before the experiment, all necessary tools were sprayed with 70% ethanol and sterilized under UV light overnight, including blade, dissecting and micro-dissecting scissors and […]. 24-well dishes were placed at 4° C. to pre-chill plates and Matrigel was thawed, 24 hours before tumor dissection.
2. 70% ethanol was sprayed on working bench. Two sterile petri dishes were prepared with 10 ml sterile PBS. The following steps 3 and 4 are necessary for mouse tumor models. For fresh human tumor, steps 3 and 4 are skipped.
3. The tumor-bearing mice were euthanized. 70% ethanol was sprayed on the mouse and the tumor was removed using sterilized dissecting tools (avoid the fur). The tumor was rinsed in petri dish with sterile PBS to remove ethanol and fur. The tumor was transferred to a new petri dish with PBS for dissection. The dish is placed on ice.
4. […]
9. When the assay was ready to be analyzed for cell death (e.g., 48 hours after drug addition), the dye mixture was prepared by mixing 6 μl of green dye to stain live cells (5 mg/ml Fluorescein diacetate or FDA in DMSO) with 30 μl of red dye (2.5 mg/ml Propidium iodide or PI in PBS) to stain dead cells in an Eppendorf tube. […]
14. Taking pictures in the red and green channels would allow not only the recording of the results but also more accurate quantitation of the results. […]

Experiment [4] concerns the target T2, full length PLXDC1 (PLXDC1-Full) (Homo sapiens, UniProt Q8IUK5).
T2 construct: expressed in transfected cells
T2 sequence (Q8IUK5 19-500): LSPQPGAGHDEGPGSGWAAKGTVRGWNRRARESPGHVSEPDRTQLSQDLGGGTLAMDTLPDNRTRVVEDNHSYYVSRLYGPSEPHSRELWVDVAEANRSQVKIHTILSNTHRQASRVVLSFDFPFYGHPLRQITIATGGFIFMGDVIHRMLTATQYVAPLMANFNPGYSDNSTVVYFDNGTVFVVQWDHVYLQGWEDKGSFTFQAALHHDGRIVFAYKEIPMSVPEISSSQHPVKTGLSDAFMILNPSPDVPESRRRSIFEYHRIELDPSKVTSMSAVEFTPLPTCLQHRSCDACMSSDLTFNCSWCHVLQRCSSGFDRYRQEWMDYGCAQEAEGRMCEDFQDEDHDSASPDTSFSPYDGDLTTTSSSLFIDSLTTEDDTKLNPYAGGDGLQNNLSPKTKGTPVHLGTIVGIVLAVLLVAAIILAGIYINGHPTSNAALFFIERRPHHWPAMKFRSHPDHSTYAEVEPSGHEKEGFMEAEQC
The experiment is described as follows: Domain A binding specificity: binding to full length PLXDC1 expressed in transfected cells.
From the text: as §1, §2, §3

In experiment [5] the test system is PLXDC1. The experiment is described as follows: Antibody binding to PLXDC1 with and without small molecule agonist compound 369 (FIG. 5).
[6] abbreviates: antibodies of Table 3 tested for ability to bind Domain A.
Where [7] appears, read: transfected into a cell line that does not express PLXDC1, FIG. 3-4.

B1: A006: VH SEQ ID NO:72, VL SEQ ID NO:73; Domain A-binding PLXDC1-activating antibody (antibody, V domains shown)
VH: QVQLVQSGAEVKKPGSSVKVSCKASGGTFSTEYISWVRQAPGQGLEWMGRIIPVLGITNYAQKFQGRVTITADESTSTAYMELSSLRSEDTAVYYCARHLGPPYLVTYSHGFDVWGQGTLVTVSS
VL: EIVMTQSPATLSVSPGERATLSCRASQSLGTNLAWYQQKPGQAPRLLIYGASTRATGIPARFSGSGSGTEFTLTISSLQSEDFAVYYCQQYYEAPPTFGQGTKVEIK
For the molecule B1, the “binding to PLXDC1 mutant with Domain A deleted” value in experiment [1] (setting [6]) is on record as “not the mutant with Domain A deleted”. Also, the “binding to Domain A-deleted PLXDC1 (PLXDC1-dA)” value in experiment [1] (setting [7]) is reported as “did not bind to Domain A-deleted PLXDC1”. In addition, the “promotor activity in PLXDC1-expressing cells” value in experiment [2] (PLXDC1-expressing cells) is given as “activated the promotor activity”. In addition, the “promotor activity in cells without PLXDC1” value in experiment [2] (cells without PLXDC1) was “not in cells without PLXDC1”. For the same molecule, the “death of tumor endothelial cells expressing PLXDC1” value in experiment [3] was “led to the death of tumor endothelial cells expressing PLXDC1”. Also, the “binding to PLXDC1” value in experiment [4] (setting [6]) is listed as “able to bind PLXDC1”. Further, the “binding to full length PLXDC1 (PLXDC1-Full)” value in experiment [4] (setting [7]) is “only bound to full length PLXDC1”. In addition, in experiment [5] (small molecule agonist compound 369 present, FIG. 5 upper curve), the “affinity to PLXDC1 when compound 369 was added” value was “greatly higher affinity”. The “affinity to standalone PLXDC1” value in experiment [5] (without compound 369, FIG. 5 lower curve) is reported as “low nM affinity”.
